In PMC3211139 (Molecular microbiology, 2011):
“And” between values parts separate entries of the source, which are not always exact repeats. Identical values can stand only once.

Target: the molecule itself
Experiment: native gel or EMSA

B1: AtxA-His (natural protein)
chain: MLTPISIEKEHIRLINLLHFINEQNRWFTIKELSDYLQVADKTVRKYLKLLEDEIPPSWNLLVQKGKGIYLKKPLNESLSFVESKILRKSLNLQICEELVFKKNSMQSLAQKLHLQVGALYPIINQINYDIQSSHLNIKKKPLEISGREQDVRVFMLRLYCNIPNDYWPFPYINKQNITDLINKMEKILNVQMYTYSKHKLCVLFAITISRLLSGNTIDNVSGLILVNKNDDHYKTVASITSELQNSFGVTLHETEISFLALALLLSLGNSITTDSNKTLTSYKKTIMPLAKEITKGIEHKLQLGINYDESFLTYVVLIIKKALDKNFIQYYNYNIKFIRHIKQRHPNTFNTIQECISNLNYTVYSHFDCYEISLLTMHFETQRMLFKNNPKKIYVYTSQGCIHREYISALLEKRYNGLIKIVRNTIINLTNESLQDMEIDIIISNVNLPIKNIPIVQISEFPTERDFHEIKKII
stoichiometry N: 2 and 4
